This assay deals with purified full-length human hexahistidine-tagged 14-3-3η (human) (UniProt Q04917). The assay is described as follows: pull-down.
Sequence of UniProt Q04917 (Q04917 whole entry): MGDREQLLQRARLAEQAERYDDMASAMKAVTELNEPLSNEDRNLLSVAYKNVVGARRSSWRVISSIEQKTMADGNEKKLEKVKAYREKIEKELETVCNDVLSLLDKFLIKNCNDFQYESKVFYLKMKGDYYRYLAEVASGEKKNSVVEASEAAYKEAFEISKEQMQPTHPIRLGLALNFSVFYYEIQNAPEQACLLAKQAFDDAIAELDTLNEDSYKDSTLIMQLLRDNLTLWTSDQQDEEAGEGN

On to “in vitro translated 35S-labeled androgen receptor (AR) (from UniProt P10275 1-920)”, for which the densitometry of bound [35S] AR was 15000.
